Data published in patent US20210130436A1.
Values belong to the binder of their own block, whether it stands above or below them.

How the values were obtained:
[1] = target: PD-1 (PDCD1) (Homo sapiens (Human)) (UniProt Q15116); experiment: cell-based or functional assay
CD96 [2] = target: T1, CD96 (UniProt P40200); experiment: flow cytometry, Fc fusion at 100 nM, CD96-transfected cells
T1 sequence (looked up): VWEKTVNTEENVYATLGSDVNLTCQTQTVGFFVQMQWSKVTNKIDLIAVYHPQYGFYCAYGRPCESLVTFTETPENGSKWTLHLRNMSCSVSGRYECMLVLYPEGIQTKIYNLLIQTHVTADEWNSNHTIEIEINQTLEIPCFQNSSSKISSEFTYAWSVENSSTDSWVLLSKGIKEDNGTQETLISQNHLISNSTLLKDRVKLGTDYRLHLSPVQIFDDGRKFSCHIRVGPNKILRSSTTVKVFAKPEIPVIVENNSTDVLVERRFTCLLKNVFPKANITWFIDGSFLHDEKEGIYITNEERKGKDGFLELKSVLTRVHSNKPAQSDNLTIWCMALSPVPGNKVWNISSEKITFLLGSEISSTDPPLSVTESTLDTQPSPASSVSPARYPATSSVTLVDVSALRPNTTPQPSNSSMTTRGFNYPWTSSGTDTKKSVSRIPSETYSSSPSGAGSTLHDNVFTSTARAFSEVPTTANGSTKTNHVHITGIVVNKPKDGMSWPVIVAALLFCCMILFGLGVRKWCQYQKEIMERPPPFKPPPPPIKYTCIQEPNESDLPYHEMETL

CD96 [3] = target: T1, CD96; experiment: flow cytometry, MFI ratio to WT CD155 ECD-Fc, CD96-transfected cells
[4] = target: T2, CD226 (Homo sapiens (Human)) (UniProt Q15762); experiment: flow cytometry on CD226-expressing cells, Fc fusion at 100 nM
T2 sequence: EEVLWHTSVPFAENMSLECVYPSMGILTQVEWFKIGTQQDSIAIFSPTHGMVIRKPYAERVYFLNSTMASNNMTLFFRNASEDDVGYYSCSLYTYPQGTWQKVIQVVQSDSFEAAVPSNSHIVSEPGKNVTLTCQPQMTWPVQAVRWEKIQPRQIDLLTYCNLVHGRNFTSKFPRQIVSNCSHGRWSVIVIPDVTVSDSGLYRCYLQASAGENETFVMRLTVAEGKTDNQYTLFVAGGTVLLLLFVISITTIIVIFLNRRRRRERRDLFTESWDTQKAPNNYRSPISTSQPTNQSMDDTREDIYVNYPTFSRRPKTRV

CD112R, Q6DKI7 = target: T3, CD112R, Q6DKI7; experiment: flow cytometry, cells expressing CD112R, 20 nM; conditions: remark: other sources report otherwise
T3 chain: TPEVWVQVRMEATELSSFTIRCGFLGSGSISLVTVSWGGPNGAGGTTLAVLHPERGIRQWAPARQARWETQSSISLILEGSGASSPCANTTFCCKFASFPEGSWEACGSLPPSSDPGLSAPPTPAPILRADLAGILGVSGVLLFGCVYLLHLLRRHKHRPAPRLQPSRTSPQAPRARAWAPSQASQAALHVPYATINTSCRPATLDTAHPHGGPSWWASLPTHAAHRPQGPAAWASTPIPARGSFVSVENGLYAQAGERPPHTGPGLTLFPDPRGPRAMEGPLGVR

[5] = target: human PD-L1, full length, expressed on transfected HEK293 cells (human) (UniProt Q9NZQ7); experiment: flow cytometry, HEK293 cells transfected with human PD-L1
Chain of human PD-L1, full length, expressed on transfected HEK293 cells (human) (Q9NZQ7 19-290): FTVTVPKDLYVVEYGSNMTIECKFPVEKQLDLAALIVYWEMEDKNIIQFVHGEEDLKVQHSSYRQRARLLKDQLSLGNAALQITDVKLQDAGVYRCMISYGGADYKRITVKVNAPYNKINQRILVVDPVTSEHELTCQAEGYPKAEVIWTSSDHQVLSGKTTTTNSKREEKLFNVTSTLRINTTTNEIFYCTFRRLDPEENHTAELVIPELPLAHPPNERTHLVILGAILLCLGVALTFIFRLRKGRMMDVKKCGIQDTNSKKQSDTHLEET

Chain of PD-1 (PDCD1) (Homo sapiens (Human)) (Q15116 21-288): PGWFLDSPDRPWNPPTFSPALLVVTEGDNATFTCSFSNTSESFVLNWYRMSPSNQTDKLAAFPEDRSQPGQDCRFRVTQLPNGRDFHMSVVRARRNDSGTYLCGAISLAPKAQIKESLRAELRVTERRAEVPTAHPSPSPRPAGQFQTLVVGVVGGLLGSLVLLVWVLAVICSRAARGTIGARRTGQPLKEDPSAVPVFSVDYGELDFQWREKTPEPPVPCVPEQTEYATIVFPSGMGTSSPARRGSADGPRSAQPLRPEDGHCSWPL

B1: PD-L2 I13V/H15Q/T47A/S67L/Q72H/R76G/Q82R/V89D IgV-Fc (Fc fusion, not shown: a dimerising Fc or GST)
chain: SEQLFTVTVPKELYIVEQGSNVTLECNFDTGSHVNLGAITASLQKVENDASPHRERATLLEEQLPLGKALFHIPHVQVGDEGQYRCIIIYGDAWDYKYLTLKVKA
Fold increase over wildtype PD-L2 IgV-Fc (IFN gamma, MLR) [1]: 1.13 fold | IFN gamma levels pg/mL (MLR) [1]: 1560 pg/mL

B3: CD155 P18S/T45S/T61K/S65W/S67A/F91S/G111R IgV-Fc (Fc fusion, not shown: a dimerising Fc or GST)
chain: WPPPGTGDVVVQAPTQVSGFLGDSVTLPCYLQVPNMEVTHVSQLSWARHGESGSMAVFHQKQGPWYAESKRLEFVAARLGAELRNASLRMSGLRVEDEGNYTCLFVTFPQRSRSVDIWLRVL
MFI at 100 nM [4]: 2110 MFI

B4: WT CD112-Fc ECD, Q92692 32-360 (Fc fusion, not shown: a dimerising Fc or GST)
chain: QDVRVQVLPEVRGQLGGTVELPCHLLPPVPGLYISLVTWQRPDAPANHQNVAAFHPKMGPSFPSPKPGSERLSFVSAKQSTGQDTEAELQDATLALHGLTVEDEGNYTCEFATFPKGSVRGMTWLRVIAKPKNQAEAQKVTFSQDPTTVALCISKEGRPPARISWLSSLDWEAKETQVSGTLAGTVTVTSRFTLVPSGRADGVTVTCKVEHESFEEPALIPVTLSVRYPPEVSISGYDDNWYLGRTDATLSCDVRSNPEPTGYDWSTTSGTFPTSAVAQGSQLVIHAVDSLFNTTFVCTVTNAVGMGRAEQVIFVRETPNTAGAGATGG
Fold Increase to WT IgV (CD112R, Q6DKI7): 0.75 fold | MFI at 20 nM (CD112R, Q6DKI7): 1250

The next lines start with the values.

MFI at 100 nM (CD96 [2]): 3320 MFI | Fold ↑ to WT ECD (CD96 [3]): 0.03 fold
B2: variant CD155 IgV-Fc G111R (Fc fusion, not shown: a dimerising Fc or GST)
chain: WPPPGTGDVVVQAPTQVPGFLGDSVTLPCYLQVPNMEVTHVSQLTWARHGESGSMAVFHQTQGPSYSESKRLEFVAARLGAELRNASLRMFGLRVEDEGNYTCLFVTFPQRSRSVDIWLRVL

MFI at 22.2 nM [5]: 1220 MFI
B5: variant CD80 IgV-Fc A12T/E24D/E35D/D46V/I61V/L72P/E95V (Fc fusion, not shown: a dimerising Fc or GST)
chain: VIHVTKEVKEVTTLSCGHNVSVEDLAQTRIYWQKDKKMVLTMMSGVMNIWPEYKNRTIFDVTNNLSIVILAPRPSDEGTYECVVLKYEKDAFKRVHLAEVTLSVKAD
